Measurements: patent publication US20210130471A1 (DRAGONFLY THERAPEUTICS, published 2021)

T1: human NKG2D expressed on EL4 cells (Example 8) (human, UniProt P26718 1-216)
T1 construct: whole, on cells; also called extracellular NKG2D expressed on EL4 cells
T1 sequence (looked up): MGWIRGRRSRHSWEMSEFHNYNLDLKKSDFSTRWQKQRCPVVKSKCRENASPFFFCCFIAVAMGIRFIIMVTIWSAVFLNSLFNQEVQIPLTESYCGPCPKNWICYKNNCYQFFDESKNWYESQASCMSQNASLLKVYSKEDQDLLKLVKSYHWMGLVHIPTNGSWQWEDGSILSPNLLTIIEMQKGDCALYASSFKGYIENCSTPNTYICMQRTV


Legend:
[1] = target: T1, human NKG2D expressed on EL4 cells …; assay: flow cytometry on EL4 cells expressing human NKG2D
Experimental: EL4 mouse lymphoma cell lines were engineered to express human NKG2D. […] The binding of the multi-specific binding proteins to NKG2D was detected using fluorophore-conjugated anti-human IgG secondary antibodies. Cells were analyzed by flow cytometry, and fold-over-background (FOB) was calculated using the mean fluorescence intensity (MFI) of NKG2D-expressing cells compared to parental EL4 cells.

[2] = target: T2, CD33 expressed on human AML cells (MV4-11, Molm-13) (human, UniProt P20138 18-364); assay: flow cytometry on Molm-13 and MV4-11 human AML cells
T2 construct: In the assay the endogenous CD33 of the human AML cell lines was the target; also called cell surface CD33; tumor associated antigen CD33
Experimental: Human AML cell line MV4-11 and Molm-13 expressing CD33 were used to assay the binding of TriNKETs to the tumor associated antigen CD33. TriNKETs and optionally the parental anti-CD33 monoclonal antibody were incubated with the cells, and the binding was detected using fluorophore-conjugated anti-human IgG secondary antibodies. Cells were analyzed by flow cytometry, and fold-over-background (FOB) was calculated using the mean fluorescence intensity (MFI) from the TriNKETs and the parental monoclonal anti-CD33 antibody normalized to secondary antibody controls. […] The TriNKETs show binding to cell surface CD33 on MV4-11 (FIGS. 36A, 36B, and 36D) and Molm-13 cells (FIG. 36C).

T2 sequence (P20138 18-364 limits assumed): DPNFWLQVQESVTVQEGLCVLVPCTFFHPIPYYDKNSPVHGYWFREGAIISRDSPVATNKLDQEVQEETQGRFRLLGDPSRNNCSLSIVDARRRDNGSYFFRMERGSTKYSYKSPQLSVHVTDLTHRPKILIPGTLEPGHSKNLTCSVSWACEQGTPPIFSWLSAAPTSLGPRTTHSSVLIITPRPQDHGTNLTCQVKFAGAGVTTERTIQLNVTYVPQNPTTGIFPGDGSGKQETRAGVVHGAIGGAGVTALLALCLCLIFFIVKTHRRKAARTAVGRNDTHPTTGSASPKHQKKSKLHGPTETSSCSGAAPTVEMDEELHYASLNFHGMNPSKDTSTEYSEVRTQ

binding result [1]	binding result [2]	Binder
binds		CD33-TriNKET-C26 (ADI-28226 and a CD33-binding domain) (bispecific antibody, V domains shown) VH 1: QVQLQQWGAGLLKPSETLSLTCAVYGGSFSGYYWSWIRQPPGKGLEWIGEIDHSGSTNYNPSLKSRVTISVDTSKNQFSLKLSSVTAADTAVYYCARARGPWSFDPWGQGTLVTVSS VL 1: DIQMTQSPSTLSASVGDRVTITCRASQSISSWLAWYQQKPGKAPKLLIYKASSLESGVPSRFSGSGSGTEFTLTISSLQPDDFATYYCQQYGSFPITFGGGTKVEIK VH 2: QVQLVQSGAEVKKPGASVKVSCKASGYTFTDYVVHWVRQAPGQGLEWMGYINPYNDGTKYNEKFKGRVTMTRDTSISTAYMELSRLRSDDTAVYYCARDYRYEVYGMDYWGQGTLVTVSS VL 2: DIVLTQSPASLAVSPGQRATITCTASSSVNYIHWYQQKPGQPPKLLIYDTSKVASGVPARFSGSGSGTDFTLTINPVEANDTANYYCQQWRSYPLTFGQGTKLEIK
binds		CD33-TriNKET-A49 (ADI-27749 and a CD33-binding domain) (bispecific antibody, V domains shown) VH 1: EVQLVESGGGLVKPGGSLRLSCAASGFTFSSYSMNWVRQAPGKGLEWVSSISSSSSYIYYADSVKGRFTISRDNAKNSLYLQMNSLRAEDTAVYYCARGAPMGAAAGWFDPWGQGTLVTVSS VL 1: DIQMTQSPSSVSASVGDRVTITCRASQGISSWLAWYQQKPGKAPKLLIYAASSLQSGVPSRFSGSGSGTDFTLTISSLQPEDFATYYCQQGVSFPRTFGGGTKVEIK VH 2: QVQLVQSGAEVKKPGASVKVSCKASGYTFTDYVVHWVRQAPGQGLEWMGYINPYNDGTKYNEKFKGRVTMTRDTSISTAYMELSRLRSDDTAVYYCARDYRYEVYGMDYWGQGTLVTVSS VL 2: DIVLTQSPASLAVSPGQRATITCTASSSVNYIHWYQQKPGQPPKLLIYDTSKVASGVPARFSGSGSGTDFTLTINPVEANDTANYYCQQWRSYPLTFGQGTKLEIK
	binds	parental anti-CD33 monoclonal antibody (antibody, V domains shown, Detected with anti-human IgG; also called parental monoclonal anti-CD33 antibody; parental anti-CD33 antibody) VH: QVQLVQSGAEVKKPGASVKVSCKASGYTFTDYVVHWVRQAPGQGLEWMGYINPYNDGTKYNEKFKGRVTMTRDTSISTAYMELSRLRSDDTAVYYCARDYRYEVYGMDYWGQGTLVTVSS VL: DIVLTQSPASLAVSPGQRATITCTASSSVNYIHWYQQKPGQPPKLLIYDTSKVASGVPARFSGSGSGTDFTLTINPVEANDTANYYCQQWRSYPLTFGQGTKLEIK
binds		CD33-TriNKET-A44 (ADI-27744 and a CD33-binding domain) (bispecific antibody, V domains shown) VH 1: not shown VL 1: DIQMTQSPSSVSASVGDRVTITCRASQGIDSWLAWYQQKPGKAPKLLIYAASSLQSGVPSRFSGSGSGTDFTLTISSLQPEDFATYYCQQGVSYPRTFGGGTKVEIK VH 2: QVQLVQSGAEVKKPGASVKVSCKASGYTFTDYVVHWVRQAPGQGLEWMGYINPYNDGTKYNEKFKGRVTMTRDTSISTAYMELSRLRSDDTAVYYCARDYRYEVYGMDYWGQGTLVTVSS VL 2: DIVLTQSPASLAVSPGQRATITCTASSSVNYIHWYQQKPGQPPKLLIYDTSKVASGVPARFSGSGSGTDFTLTINPVEANDTANYYCQQWRSYPLTFGQGTKLEIK
binds		CD33-TriNKET-F47 (ADI-29447 and a CD33-binding domain) (bispecific antibody, V domains shown) VH 1: QVQLQQWGAGLLKPSETLSLTCAVYGGSFSGYYWSWIRQPPGKGLEWIGEIDHSGSTNYNPSLKSRVTISVDTSKNQFSLKLSSVTAADTAVYYCARARGPWSFDPWGQGTLVTVSS VL 1: DIQMTQSPSTLSASVGDRVTITCRASQSISSWLAWYQQKPGKAPKLLIYKASSLESGVPSRFSGSGSGTEFTLTISSLQPDDFATYYCQQYDTFITFGGGTKVEIK VH 2: QVQLVQSGAEVKKPGASVKVSCKASGYTFTDYVVHWVRQAPGQGLEWMGYINPYNDGTKYNEKFKGRVTMTRDTSISTAYMELSRLRSDDTAVYYCARDYRYEVYGMDYWGQGTLVTVSS VL 2: DIVLTQSPASLAVSPGQRATITCTASSSVNYIHWYQQKPGQPPKLLIYDTSKVASGVPARFSGSGSGTDFTLTINPVEANDTANYYCQQWRSYPLTFGQGTKLEIK
